Laboratory results taken from patent publication US20180043012A1 (CSL BEHRING RECOMBINANT FACILITY, published 2018).

How the values were obtained:
[1] = target: T1, purified monomeric human VWF (von Willebrand factor) (human, UniProt P04275 764-2813, limits assumed); experiment: SPR, CLEC10A immobilized on CM3 chip, fit of the dissociation phase alone
T1 construct: Analyte in the mobile phase in all SPR experiments; Background text says mature plasma VWF is the 2050-residue polypeptide; also called VWF monomers; monomeric VWF
Method: Interaction analysis cycles consisted of a 5 min sample injection phase. In this association phase, VWF bound to CLEC10A immobilized on the surface, and increased the surface mass. This phase was followed by a dissociation phase of 17 min in running buffer. In the dissociation phase, the sample was replaced by running buffer and the dissociated VWF was removed from the surface, resulting in a decreased surface mass. All samples were tested as repeat determination. […] Although kinetic data were analyzed using Biacore T200 Evaluation Software Version 1.0 (GE Healthcare Biosciences, Uppsala, Sweden), the data set was only used for information purpose.
SPR was predominantly used as mass detector. An interaction of VWF with CLEC10A was detected by an increase in accumulating mass and specific binding was identified by subtracting the binding response recorded from the control surface, followed by subtracting an average of the buffer blank injections. A time point was positioned 20 seconds after the end of sample injection and was evaluated as representative for a stable protein-ligand interaction, which was of interest. […] Furthermore, testing was performed at least in duplicate and the response was calculated relative to the baseline in each case. […] Moreover, dissociation rate constants (off-rate) were calculated by fitting the dissociation phase alone. […]

[2] = target: T1, purified monomeric human VWF (von …); experiment: SPR, MGL1 immobilized on CM3 chip, fit of the dissociation phase alone

| Binder | koff [1] | koff [2] |
| --- | --- | --- |
| recombinant human CLEC10A, extracellular domain (R&D Systems) (receptor, UniProt Q8IUN9 61-316, looked up, extracellular domain; also called macrophage Gal-type lectin; CD301) QNSKFQRDLVTLRTDFSNFTSNTVAEIQALTSQGSSLEETIASLKAEVEGFKQERQAGVSELQEHTTQKAHLGHCPHCPSVCVPVHSEMLLRVQQLVQDLKKLTCQVATLNNNASTEGTCCPVNWVEHQDSCYWFSHSGMSWAEAEKYCQLKNAHLVVINSREEQNFVQKYLGSAYTWMGLSDPEGAWKWVDGTDYATGFQNWKPGQPDDWQGHGLGGGEDCAHFHPDGRWNDDVCQRPYHWVCEAGLGQTSQESH | 0.00051 s⁻¹ | – |
| mouse MGL1 (CLEC10A orthologous mouse receptor protein) (receptor, UniProt P49300 57-304, looked up) QNSQLRRDLGTLRATLDNTTSKIKAEFQSLDSRADSFEKGISSLKVDVEDHRQELQAGRDLSQKVTSLESTVEKREQALKTDLSDLTDHVQQLRKDLKALTCQLANLKNNGSEVACCPLHWTEHEGSCYWFSESEKSWPEADKYCRLENSHLVVVNSLEEQNFLQNRLANVVSWIGLTDQNGPWRWVDGTDFEKGFKNWAPLQPDNWFGHGLGGGEDCAHITTGGPWNDDVCQRTFRWICEMKLAKES | – | 0.000406 s⁻¹ |
